From article PMC12282171, “VCY mediates inhibition of PFV replication via interaction with the transcription activator Tas” (Journal of Virology, 2025)

Molecular target: His-VCY (human, UniProt O14598 1-125)
Assay: pull-down; purified His-VCY added to purified GST-Tas or GST coupled to glutathione sepharose, 3 h at 4 °C; western blot
Conditions: both partners purified

B1: GST-Tas (natural protein)
chain: MDSYEKEESVASTSGIQDLQTLSELVGPENAGEGELTIAEEPEENPRRPRRYTKREVKCVSYHAYKEIEDKHPQHIKLQDWIPTPEEMSKSLCKRLILCGLYSAEKASEILRMPFTVSWEQSDTDPDCFIVSYTCIFCDAVIHDPMPIRWDPEVGIWVKYKPLRGIVGSAVFIMHKHQRNCSLVKPSTSCSEGPKPRPRHDPVLRCDMFEKHHKPRQKRPRRRSIDNESCASSSDTMANEPGSLCTNPLWNPGPLLSGLLEESSNLPNLEVHMSGGPFWEEVYGDSILGPPSGSGEHSVL
notes: also called recombinant GST-Tas; pGST-Tas; source: E. coli BL21, purified (GST column)
- binding result: binds
